# B1: Protein BMH2 (Saccharomyces cerevisiae), P34730 (parent)
# chain: MSQTREDSVYLAKLAEQAERYEEMVENMKAVASSGQELSVEERNLLSVAYKNVIGARRASWRIVSSIEQKEESKEKSEHQVELIRSYRSKIETELTKISDDILSVLDSHLIPSATTGESKVFYYKMKGDYHRYLAEFSSGDAREKATNSSLEAYKTASEIATTELPPTHPIRLGLALNFSVFYYEIQNSPDKACHLAKQAFDDAIAELDTLSEESYKDSTLIMQLLRDNLTLWTSDISESGQEDQQQQQQQQQQQQQQQQQAPAEQTQGEPTK
# Variants of: B1
# Conditions: with rad53_yeast RAD53, P22216
# Chain of rad53_yeast RAD53, P22216 (P22216 whole entry): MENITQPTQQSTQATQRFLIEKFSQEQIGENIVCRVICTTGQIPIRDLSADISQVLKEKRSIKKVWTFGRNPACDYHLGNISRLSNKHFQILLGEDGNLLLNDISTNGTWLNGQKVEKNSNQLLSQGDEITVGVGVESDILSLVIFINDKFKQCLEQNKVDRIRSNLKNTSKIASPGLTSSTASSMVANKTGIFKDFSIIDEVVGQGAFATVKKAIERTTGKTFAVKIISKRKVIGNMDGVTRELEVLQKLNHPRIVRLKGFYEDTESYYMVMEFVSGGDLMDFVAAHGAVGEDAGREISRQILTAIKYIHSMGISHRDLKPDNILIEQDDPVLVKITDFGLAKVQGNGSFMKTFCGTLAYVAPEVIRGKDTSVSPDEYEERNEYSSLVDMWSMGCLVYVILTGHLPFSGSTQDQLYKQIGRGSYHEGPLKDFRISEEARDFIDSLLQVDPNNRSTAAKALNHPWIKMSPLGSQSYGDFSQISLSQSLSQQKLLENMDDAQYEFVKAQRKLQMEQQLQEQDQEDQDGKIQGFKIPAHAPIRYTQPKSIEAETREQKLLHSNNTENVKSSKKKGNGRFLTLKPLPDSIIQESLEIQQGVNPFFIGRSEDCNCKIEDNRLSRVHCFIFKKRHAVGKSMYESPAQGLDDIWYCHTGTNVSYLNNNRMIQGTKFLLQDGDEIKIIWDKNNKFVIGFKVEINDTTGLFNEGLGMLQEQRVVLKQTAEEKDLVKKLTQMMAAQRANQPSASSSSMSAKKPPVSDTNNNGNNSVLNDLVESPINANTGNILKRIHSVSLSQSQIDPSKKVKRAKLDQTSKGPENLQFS
row,effect of a mutation on the interaction,Variant
1,disrupting interaction strength,E185D
2,disrupting interaction strength,L225Q
3,decreasing interaction strength,K51R
4,decreasing interaction strength,K51L

# — IntAct's records for PubMed 17299042
